Source: the DeepSol protein solubility set

assay: soluble on expression in E. coli; label from the status in PepcDB or PDB records

**Q.** For “MASNDPGNEVSSYSPTSPSYVKFFTQSNLEKLPKYKEKKAASAKQTAPNNSNGGSEEEITCALDYLIPPPMPKNQQYRAFGSIW”, which “soluble on expression in E. coli” value is on record?
**A.** soluble

**Q.** For “MASPLRFDGRVVLVTGAGGGLGRAYALAFAERGALVVVNDLGGDFKGVGKGSSAADKVVEEIRRRGGKAVANYDSVEAGEKLVKTALDTFGRIDVVVNNAGILRDRSFSRISDEDWDIIQRVHLRGSFQVTRAAWDHMKKQNYGRIIMTASASGIYGNFGQANYSAAKLGLLGLANTLVIEGRKNNIHCNTIAPNAGSRMTETVMPEDLVEALKPEYVAPLVLWLCHESCEENGGLFEVGAGWIGKLRWERTLGAIVRKRNQPMTPEAVRDNWVKICDFSNASKPKSIQESTGGIIEVLHKIDSEGISQNHTGQVASAD”, which “soluble on expression in E. coli” value is on record?
**A.** soluble

**Q.** For “MASQLTDAFARKFYYLRLSITDVCNFRCTYCLPDGYKPSGVTNKGFLTVDEIRRVTRAFARLGTEKVRLTGGEPSLRRDFTDIIAAVRENDAIRQIAVTTNGYRLERDVASWRDAGLTGINVSVDSLDARQFHAITGQDKFNQVMAGIDAAFEAGFEKVKVNTVLMRDVNHHQLDTFLNWIQHRPIQLRFIELMETGEGSELFRKHHISGQVLRDELLRRGWIHQLRQRSDGPAQVFCHPDYAGEIGLIMPYEKDFCATCNRLRVSSIGKLHLCLFGEGGVNLRDLLEDDTQQQALEARISAALREKKQTHFLHQNNTGITQNLSYIGGLEHHHHHH”, which “soluble on expression in E. coli” value is on record?
**A.** not soluble

**Q.** Which “soluble on expression in E. coli” value does the source give for “MASQNRDPAATSVAAARKGAEPSGGAARGPVGKRLQQELMTLMMSGDKGISAFPESDNLFKWVGTIHGAAGTVYEDLRYKLSLEFPSGYPYNAPTVKFLTPCYHPNVDTQGNISLDILKEKWSALYDVRTILLSIQSLLGEPNIDSPLNTHAAELWKNPTAFKKYLQETYSKQVTSQEP” here?
**A.** soluble

**Q.** Which “soluble on expression in E. coli” value does the source give for “MASSSSAALRPFGTARLTPGRQTGRQTQQQISAPEPMIAIALSDMEYLMRSARSSRSSGRSERQPGCTCCCHIAAGVTVIPRVARFSIEGGLSTHTLMNHSDNRIAVKITCSDNNMYRVTPVYATVEPGQSLPLHIARITSDLIKRDRLCVNILEADGNKEAREIFKKNANTRAPASINMALEATNDNQNHHHQE” here?
**A.** not soluble

**Q.** For “MASTNCVSIQKRDILRGSGSTTWFDVLLEKGSCVTIVADDRPTVDIWLDRITHESPIAGREYCMRVDISGLKIATRCPTLGEAYLSEEHTEDYVCKRGFSDRGWGNGCGLFGKGSIVGCVKTTCKSSGIAKSYSYDIPKVKYVISTEVHKGELISGNVSASVVSATFSSEAEKHSMELEDYGRLEFTCRVVSGSNLGSVRILEIDNHYFNVHEDWLLDLPLPWRIPDGHWHDLGELIAFKEPHAVKMVAQAYGDQRASLLKSLVKAEEIAKSGNSYYLPGGHVDCRVSLVNLKLKGTTYPYCGDSFVWKRRPTATHHGTVAMEVTYQGTDVPCKVSVIVEKDGQNGGNAGSLITSNPIITAQGSSVFLELEVPLGFSTIKVGAAKQQWRQDGSSIGKALETHHHHHH”, which “soluble on expression in E. coli” value is on record?
**A.** not soluble

**Q.** Which “soluble on expression in E. coli” value does the source give for “MASWSHPQFEKGASLDSPTFGCTDSPVRRERGQKAVFCGLTSIVWLHRKMQDAFFLVVGSRTCAHLLQAAAGVMIFAEPRFGTAVLEEQDLAGLADAHKELDREVAKLLERRPDIRQLFLVGSCPSEVLKLDLDRAAERLSGLHAPHVRVYSYTGSGLDTTFTQGEDTCLAAMVPTLDTTEAAELIVVGALPDVVEDQCLSLLTQLGVGPVRMLPARRSDIEPAVGPNTRFILAQPFLGETTGALERRGAKRIAAPFPFGEEGTTLWLKAVADAYGVSAEKFEAVTAAPRARAKKAIAAHLETLTGKSLFMFPDSQLEIPLARFLARECGMKTTEIATPFLHKAIMAPDLALLPSNTALTEGQDLEAQLDRHEAINPDLTVCGLGLANPLEAKGHATKWAIELVFTPVHFYEQAGDLAGLFSRPLRRRALLNGGAA” here?
**A.** soluble
